Assay results reported in PMC10245438, “Domino-like effect of C112R mutation on ApoE4 aggregation and its reduction by Alzheimer’s Disease drug candidate” (Molecular Neurodegeneration, 2023).
Where a chain is given by its changes, count along the chain named.

B1: APOE3M-AP (domain or fragment, human, UniProt P02649 42-317, looked up)
chain: QRWELALGRFWDYLRWVQTLSEQVQEELLSSQVTQELRALMDETMKELKAYKSELEEQLTPVAEETRARLSKELQAAQARLGADMEDVCGRLVQYRGEVQAMLGQSTEELRVRLASHLRKLRKRLLRDADDLQKRLAVYQAGAREGAERGLSAIRERLGPLVEQGRVRAATVGSLAGQPLQERAQAWGERLRARMEEMGSRTRDRLDEVKEQVAEVRAKLEEQAQQIRLQAEAAQARLKSRFEPLAEDMQRQWAGQVEKVQAAEGTSAAPVPSDNH
notes: apolipoprotein E, isoform ApoE3, human, residues 1-23 (helices N1 and N2) deleted, with the five monomerizing mutations; Truncated variants were cloned into NdeI/BamHI of pET-21b; also called ApoEM-AP; aggregation-prone ApoEM; source: E. coli BL21(DE3), purified (Ni-NTA, 3C protease cleavage, SEC); not shown: His, N-terminal, cleaved; thioredoxin, N-terminal, cleaved
B2: APOE4M-AP (domain or fragment, human, UniProt P02649 42-317, looked up)
chain: B1 chain with C89R
notes: apolipoprotein E, isoform ApoE4, human, residues 1-23 (helices N1 and N2) deleted, with the five monomerizing mutations; Truncated variants were cloned into NdeI/BamHI of pET-21b; also called ApoEM-AP; aggregation-prone ApoEM; source: E. coli BL21(DE3), purified (Ni-NTA, 3C protease cleavage, SEC); not shown: His, N-terminal, cleaved; thioredoxin, N-terminal, cleaved
B3: ApoE4 N-terminal domain (NTD) as seen in the crystals grown from His-MBP-ApoE4M (domain or fragment, human, UniProt P02649 40-183, looked up)
chain: SGQRWELALGRFWDYLRWVQTLSEQVQEELLSSQVTQELRALMDETMKELKAYKSELEEQLTPVAEETRARLSKELQAAQARLGADMEDVRGRLVQYRGEVQAMLGQSTEELRVRLASHLRKLRKRLLRDADDLQKRLAVYQAG
notes: apolipoprotein E, isoform ApoE4 (R112/R158), human; only residues ~22-165 (NTD) were obtained in the structures; the five mutations lie outside that range; also called ApoE4 NTD; source: E. coli BL21(DE3), purified (Ni-NTA, SEC; no cleavage step)

Tests used:
[1] = molecular target: the molecule itself; assay: dynamic light scattering; ~0.2 mg/ml, room temperature, size distribution after SEC purification
[2] = molecular target: the molecule itself; assay: crystal structure; His-MBP-ApoE4M ~8 mg/ml, hanging drop vapour diffusion; four crystals in two space groups (P212121, P3121); dimeric unit of two NTDs (chains A and B) from crystal packing contacts

Row | Protein | binding result [1] | binding result [2]
1 | B1 | binds | 
2 | B2 | binds | 
3 | B3 |  | binds
